From patent US20190077860A1 (EISAI R AND D MANAGEMENT, published 2019) come the findings set out here.

As a reminder, the IC50 is the midpoint of a concentration-inhibition curve. The koff is the first-order rate constant of dissociation. In general, kon refers to the rate constant with which the complex forms. A high value points to faster complex formation. For orientation: Kd means the constant that tells how readily two partners part at equilibrium. Higher therefore signals a looser complex.

Test [1] deals with T1, human EphA4 extracellular region-SEAP-His protein (human, UniProt P54764 20-547).
T1 construct: also called hEphA4-SEAP-His
Description: competition ELISA, competitor human Ephrin B3-Fc. The method, then:
Antibody A obtained in Example 1 was evaluated for its inhibitory activity against the binding between human EphA4 and its human ligand according to the following steps. Each well of a 96-well plate (Nunc) was coated with an anti-alkaline phosphatase antibody (Thermo Fisher Scientific). After incubation overnight at 4° C., each well was blocked with 1% BlockAce (DS Pharma Biomedical) at room temperature for 1 hour. After washing with 0.05% Tween 20/PBS (Thermo Fisher Scientific) three times, the human EphA4 extracellular region-SEAP-His protein obtained by the method of Example 1 was added (final concentration: 10 nM) to each well and incubated at room temperature for 1 hour. After washing three times, ligands and serially diluted antibody A (0, 0.003, 0.01, 0.03, 0.1, 0.3, 1, 3, 10, 30, 100, 300, 1000, and 3000 nM) or an EphA4 inhibitor KYL peptide ([…], 0, 0.003, 0.01, 0.03, 0.1, 0.3, 1, 3, 10, 30, 100, 300, 1000, and 3000 μM, its synthesis was outsourced to Toray Research Center) were added to each well. The ligands used were biotinylated human Ephrin A5-Fc chimera (R&D Systems, final concentration: 0.7 nM) and biotinylated human Ephrin B3-Fc chimera (R&D Systems, final concentration: 2.3 nM). […] The absorbance at 450 nm was read using a microplate reader (Molecular Devices or PerkinElmer). […]

The target in test [2] is T2, mouse EphA4 extracellular region-SEAP-His protein (mouse). Description: SPR (Biacore A100), antibody A captured on a rat anti-mouse IgG1 CM5 chip, mouse EphA4 extracellular region-SEAP-His as analyte at 0.8-50 nM, 1:1 fit. The method, then: (§1) The binding affinity of antibody A obtained in Example 1 for mouse and human EphA4 was determined by surface plasmon resonance (SPR) using Biacore A100 (GE Healthcare). First, a rat anti-mouse IgG₁ antibody produced with a conventional procedure by immunizing rat with a mouse IgG₁ antibody was immobilized on sensor chip CM5. The immobilization of the rat anti-mouse IgG1 antibody on sensor chip CM5 was performed by the amine coupling method using N-hydroxysuccinimide (NHS) and N-ethyl-N′-(3-dimethylaminopropyl)carbodiimide hydrochloride (EDC). Ethanolamine was used in blocking (the sensor chip and the reagents for immobilization were all manufactured by GE Healthcare). The antibody was diluted with a buffer solution for immobilization (10 mM sodium acetate, pH 4.5) into 1 to 2 μg/mL and immobilized on the sensor chip according to the protocol attached to Biacore A100. Antibody A was diluted with a running buffer solution HBS-EP (GE Healthcare, BR-1001-88), injected onto a flow cell for 120 seconds, and captured (amount of the antibody captured: approximately 70 to 100 RU). Subsequently, mouse or human EphA4 extracellular region-SEAP-His serially diluted in the range of 50, 25, 12.5, 6.3, 3.1, 1.6, 0.8, and 0 nM using HBS-EP was added to the sensor chip for 120 seconds. […]
For orientation: Surface plasmon resonance follows binding to a sensor surface in real time, without labels.

In test [3] the target is T1, human EphA4 extracellular …. The experiment in a line: SPR (Biacore A100), antibody captured, EphA4-SEAP-His analyte. As for the experimental part: as §1
The target in test [4] is T2, mouse EphA4 extracellular …. The description is as above. The method, then:
as §1

Test [5] shares this target. The experiment in a line: competition ELISA, competitor mouse Ephrin A1-Fc. The method, then:
Antibody A obtained in Example 1 was evaluated for its inhibitory activity against the binding between mouse EphA4 and its mouse ligand according to the following steps. Each well of a 96-well plate (Nunc) was coated with an anti-alkaline phosphatase antibody (Thermo Fisher Scientific). After incubation overnight at 4° C., each well was blocked with 1% BlockAce (DS Pharma Biomedical) at room temperature for 1 hour. After washing with 0.05% Tween 20/PBS (Thermo Fisher Scientific) three times, the mouse EphA4 extracellular region-SEAP-His protein obtained by the method of Example 1 was added (final concentration: 10 nM) to each well and incubated at room temperature for 1 hour. After washing three times, ligands and serially diluted antibody A (0, 0.001, 0.003, 0.01, 0.03, 0.1, 0.3, 1,3, 10, 30, 100, 300, and 1000 nM) or a known EphA4 inhibitor KYL peptide ([…], 0, 0.003, 0.01, 0.03, 0.1, 0.3, 1, 3, 10, 30, and 100 μM, its synthesis was outsourced to Hokkaido System Science) or compound 1 (0, 0.03, 0.1, 0.3, 1,3, 10, 30, 100, 300, and 1000 μM, Formula 1, Matrix Scientific) were added to each well. The ligands used were mouse Ephrin A1-Fc chimera (R&D Systems, final concentration: 20 nM) and mouse Ephrin B2-Fc chimera (R&D Systems, final concentration: 0.6 nM). […] The absorbance at 450 nm was read using a microplate reader (Molecular Devices).
Background: ELISA stands for enzyme-linked immunosorbent assay.

T2 sequence (chain, as listed by the source limits assumed): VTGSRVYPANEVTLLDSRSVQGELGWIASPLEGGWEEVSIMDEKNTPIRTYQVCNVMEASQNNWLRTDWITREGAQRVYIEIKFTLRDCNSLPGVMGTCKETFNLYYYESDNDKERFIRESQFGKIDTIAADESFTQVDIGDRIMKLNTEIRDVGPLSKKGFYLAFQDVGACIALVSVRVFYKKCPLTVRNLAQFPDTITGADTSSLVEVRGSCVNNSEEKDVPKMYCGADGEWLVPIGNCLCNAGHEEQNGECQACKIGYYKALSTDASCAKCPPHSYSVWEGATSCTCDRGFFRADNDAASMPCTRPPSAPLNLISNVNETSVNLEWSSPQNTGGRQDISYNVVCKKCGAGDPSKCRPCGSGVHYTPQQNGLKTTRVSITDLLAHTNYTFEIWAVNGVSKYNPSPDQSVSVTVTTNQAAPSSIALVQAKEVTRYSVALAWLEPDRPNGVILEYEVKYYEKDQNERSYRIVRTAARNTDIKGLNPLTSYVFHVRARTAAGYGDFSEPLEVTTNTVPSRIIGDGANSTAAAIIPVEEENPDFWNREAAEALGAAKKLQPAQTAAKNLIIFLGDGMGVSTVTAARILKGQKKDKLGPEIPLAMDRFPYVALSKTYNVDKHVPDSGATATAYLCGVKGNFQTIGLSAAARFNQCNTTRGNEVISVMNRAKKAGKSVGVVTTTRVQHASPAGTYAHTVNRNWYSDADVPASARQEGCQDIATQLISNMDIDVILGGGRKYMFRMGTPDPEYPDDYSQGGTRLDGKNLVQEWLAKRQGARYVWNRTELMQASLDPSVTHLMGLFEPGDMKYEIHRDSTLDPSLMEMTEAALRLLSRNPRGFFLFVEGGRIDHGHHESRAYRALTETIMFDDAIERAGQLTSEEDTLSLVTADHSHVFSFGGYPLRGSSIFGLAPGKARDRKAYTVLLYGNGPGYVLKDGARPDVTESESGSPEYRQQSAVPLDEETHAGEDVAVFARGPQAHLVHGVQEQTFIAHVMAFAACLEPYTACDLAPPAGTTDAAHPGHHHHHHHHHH
T1 sequence (P54764 20-547): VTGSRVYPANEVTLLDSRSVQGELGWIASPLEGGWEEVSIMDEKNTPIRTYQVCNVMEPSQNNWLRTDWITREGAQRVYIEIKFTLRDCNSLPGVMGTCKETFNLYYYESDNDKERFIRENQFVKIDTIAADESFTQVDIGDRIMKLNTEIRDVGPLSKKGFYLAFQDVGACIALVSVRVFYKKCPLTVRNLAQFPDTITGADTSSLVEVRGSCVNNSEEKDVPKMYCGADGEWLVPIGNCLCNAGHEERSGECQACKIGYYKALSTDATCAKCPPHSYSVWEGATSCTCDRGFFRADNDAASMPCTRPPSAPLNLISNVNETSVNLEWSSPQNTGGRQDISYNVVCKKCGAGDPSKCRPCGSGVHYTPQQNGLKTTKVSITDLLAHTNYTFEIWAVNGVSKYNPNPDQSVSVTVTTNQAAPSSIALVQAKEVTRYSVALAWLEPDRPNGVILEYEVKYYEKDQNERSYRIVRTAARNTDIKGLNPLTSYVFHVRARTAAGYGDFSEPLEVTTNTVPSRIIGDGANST

B1: antibody A (antibody, mouse IgG1, kappa, V domains shown)
VH: QIQLVQSGPELKKPGETVKISCKASGYTFTDYSMHWVKQAPGKGLKWMGWINTETGEPTYADDFKGRFAFSLETSASTAYLQINNLKNEDTATYFCARIPLYYYGSRYWYFDVWGAGTTVTVSS
VL: DIQMTQSPASLSVSVGETVTITCRASENIYRNLAWYQQKQGKSPQLLVYAATNLADGVPSRFSGSGSGTQYSLKINSLQSEDFGSYYCQHFWGTPWTFGGGTKLEIKR
notes: mouse IgG1 heavy chain, kappa light chain; purified from hybridoma supernatant; also called anti-EphA4 monoclonal antibody; antibody A-IgG
For the molecule B1, the IC50 was approximately 1.9 nM in test [1] and approximately 1.2 nM in test [5]. This molecule also yielded a koff in test [2] of 0.000144 s⁻¹. In test [2], this molecule yielded a kon of 218000 M⁻¹ s⁻¹. Moreover, the Kd in test [3] was determined as 0.661 nM; in test [4], 0.729 nM.
